Laboratory results taken from patent US20210388087A1 (Chugai, published 2021).
Residue numbers refer to the chain shown, from its start. In names and notes the source's numbering stands.

B1: dBBDu183H T100bN / dBBDu072L (antibody, name in Kabat numbering, V domains shown)
VH: QVQLVESGGGLVQPGRSLRLSCAASGFTFSNAWMHWVRQAPGKGLEWVAQIKDKGNAYAAYYAPSVKGRFTISRDDSKNSIYLQMNSLKTEDTAVYYCHYVHYASASNVLPAFGVDAWGQGTTVTVSS
VL: DIVMTQSPLSLPVTPGEPASISCQASQELVHMNRNTYLHWYQQKPGQAPRLLIYKVSNRFPGVPDRFSGSGSGTDFTLKISRVEAEDVGVYYCAQGTSVPFTFGQGTKLEIK
notes: as m1, one VH change
B2: dBBDu183H V63W / dBBDu072L (antibody, name in Kabat numbering, V domains shown)
VH: B1 VH with V66W, N108T
VL: B1 VL
notes: as m1, one VH change
B3: dBBDu183H T100bQ / dBBDu072L (antibody, name in Kabat numbering, V domains shown)
VH: B1 VH with N108Q
VL: B1 VL
notes: as m1, one VH change
B4: dBBDu183H T100bS / dBBDu072L (antibody, name in Kabat numbering, V domains shown)
VH: B1 VH with N108S
VL: B1 VL
notes: as m1, one VH change
B5: dBBDu183H V63Q / dBBDu072L (antibody, name in Kabat numbering, V domains shown)
VH: B1 VH with V66Q, N108T
VL: B1 VL
notes: as m1, one VH change
B6: dBBDu183H V63R / dBBDu072L (antibody, name in Kabat numbering, V domains shown)
VH: B1 VH with V66R, N108T
VL: B1 VL
notes: as m1, one VH change
B7: dBBDu183H V63G / dBBDu072L (antibody, name in Kabat numbering, V domains shown)
VH: B1 VH with V66G, N108T
VL: B1 VL
notes: as m1, one VH change
B8: dBBDu183H V63H / dBBDu072L (antibody, name in Kabat numbering, V domains shown)
VH: B1 VH with V66H, N108T
VL: B1 VL
notes: as m1, one VH change
B9: dBBDu183H V63S / dBBDu072L (antibody, name in Kabat numbering, V domains shown)
VH: B1 VH with V66S, N108T
VL: B1 VL
notes: as m1, one VH change
B10: dBBDu183H V100cH / dBBDu072L (antibody, name in Kabat numbering, V domains shown)
VH: B1 VH with N108T, V109H
VL: B1 VL
notes: as m1, one VH change
B11: dBBDu183H V100cE / dBBDu072L (antibody, name in Kabat numbering, V domains shown)
VH: B1 VH with N108T, V109E
VL: B1 VL
notes: as m1, one VH change
B12: dBBDu183H V63D / dBBDu072L (antibody, name in Kabat numbering, V domains shown)
VH: B1 VH with V66D, N108T
VL: B1 VL
notes: as m1, one VH change
B13: dBBDu183H V63N / dBBDu072L (antibody, name in Kabat numbering, V domains shown)
VH: B1 VH with V66N, N108T
VL: B1 VL
notes: as m1, one VH change
B14: dBBDu183H V100cK / dBBDu072L (antibody, name in Kabat numbering, V domains shown)
VH: B1 VH with N108T, V109K
VL: B1 VL
notes: as m1, one VH change
B15: dBBDu183H V63F / dBBDu072L (antibody, name in Kabat numbering, V domains shown)
VH: B1 VH with V66F, N108T
VL: B1 VL
notes: as m1, one VH change
B16: dBBDu183H V63K / dBBDu072L (antibody, name in Kabat numbering, V domains shown)
VH: B1 VH with V66K, N108T
VL: B1 VL
notes: as m1, one VH change
B17: dBBDu183H V63E / dBBDu072L (antibody, name in Kabat numbering, V domains shown)
VH: B1 VH with V66E, N108T
VL: B1 VL
notes: as m1, one VH change
B18: dBBDu183H V63T / dBBDu072L (antibody, name in Kabat numbering, V domains shown)
VH: B1 VH with V66T, N108T
VL: B1 VL
notes: as m1, one VH change

Each binder was assayed against T1, Human CD137 ECD (human) (assay: SPR, vs parent H183/L072).
T1 construct: also called 4-1BB
T1 sequence (chain, as listed by the source limits assumed): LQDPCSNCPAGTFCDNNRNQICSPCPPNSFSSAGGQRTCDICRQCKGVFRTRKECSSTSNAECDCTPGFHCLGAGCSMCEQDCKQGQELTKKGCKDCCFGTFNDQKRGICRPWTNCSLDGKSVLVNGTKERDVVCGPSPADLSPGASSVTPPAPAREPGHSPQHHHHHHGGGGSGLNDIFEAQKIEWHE

Going from B1 to B2, the “fold change of affinity” value rises from 0.1 fold to 1 fold.

Going from B3 to B4, the “fold change of affinity” value rises from 0.3 fold to 1 fold.

Compared with B5, B6 is lower in “fold change of affinity” value: 1.3 fold for the first, 1 fold for the second.

First: B7
Second: B8
The “fold change of affinity” value of the first is higher: 1.3 fold for the first, 1 fold for the second.

Going from B9 to B10, the “fold change of affinity” value falls from 0.9 fold to 0.5 fold.

First: B11
Second: B12
The “fold change of affinity” value of the first is lower: 0.5 fold for the first, 0.9 fold for the second.

First: B13
Second: B14
The “fold change of affinity” value of the first is higher: 0.9 fold for the first, 0.5 fold for the second.

Compared with B15, B16 is lower in “fold change of affinity” value: 0.9 fold for the first, 0.8 fold for the second.

B17 and B18 are the same in “fold change of affinity” value: 0.9 fold for the first, 0.9 fold for the second.
